According to article PMC2889927:

Assays:
Experiment in all cases: flow cytometry on cells; PE-conjugated OCH-loaded human CD1d tetramers on human iNKT clones; 4°C, 45 min; mean fluorescence intensity
[1] = target: TCR of the human iNKT clone 4C1227, on the cells of the clone (human)
[2] = target: TCR of the human iNKT clone 4C862, on the cells of the clone (human)
[3] = target: TCR of the human iNKT clone 4C866, on the cells of the clone (human)
[4] = target: TCR of the human iNKT clone 4C1369, on the cells of the clone (human)
[5] = target: TCR of the human iNKT clone DN347, on the cells of the clone (human)

- OCH-tet (MFI) [1]: 1230 MFI
- OCH-tet (MFI) [2]: 862 MFI
- OCH-tet (MFI) [3]: 866 MFI
- OCH-tet (MFI) [4]: 1370 MFI
- OCH-tet (MFI) [5]: 347 MFI
B1: PE-conjugated human CD1d tetramer loaded with OCH (complex)
chain: EVPQRLFPLRCLQISSFANSSWTRTDGLAWLGELQTHSWSNDSDTVRSLKPWSQGTFSDQQWETLQHIFRVYRSSFTRDVKEFAKMLRLSYPLELQVSAGCEVHPGNASNNFFHVAFQGKDILSFQGTSWEPTQEAPLWVNLAIQVLNQDKWTRETVQWLLNGTCPQFVSGLLESGKSELKKQVKPKAWLSRGPSPGPGRLLLVCHVSGFYPKPVWVKWMRGEQEQQGTQPGDILPNADETWYLRATLDVVAGEAAGLSCRVKHSSLEGQDIVLYWGGSYTSMGLIALAVLACLLFLLIVGFTSRFKRQTSYQGVL
